In paper PMC5689087 (Structure (London, England : 1993), 2017):
Where no end group is shown, it is not given here. The star is where a group is joined. FITC = O=C1OC2(c3ccc(O)cc3Oc3cc(O)ccc32)c2ccc(NC(=S)*)cc21

B1: Fab LM609 (recombinant antigen-binding fragment of the mouse monoclonal antibody LM609) (Fab, V domains shown)
VH: EVQLEESGGGLVKPGGSLKLSCAASGFAFSSYDMSWVRQIPEKRLEWVAKVSSGGGSTYYLDTVQGRFTISRDNAKNTLYLQMSSLNSEDTAMYYCARHNYGSFAYWGQGTLVTVSA
VL: ELVMTQTPATLSVTPGDSVSLSCRASQSISNHLHWYQQKSHESPRLLIKYASQSISGIPSRFSGSGSGTDFTLSINSVETEDFGMYFCQQSNSWPHTFGGGTKLEIK

Legend:
[1] = target: human αVβ3 integrin ectodomain (purchased, lyophilized) (human, UniProt P06756;P05106); experiment: SPR
human αVβ3 integrin ectodomain (purchased, lyophilized) (human, UniProt P06756;P05106), sequence (P06756 31-992, chain 1 of 2): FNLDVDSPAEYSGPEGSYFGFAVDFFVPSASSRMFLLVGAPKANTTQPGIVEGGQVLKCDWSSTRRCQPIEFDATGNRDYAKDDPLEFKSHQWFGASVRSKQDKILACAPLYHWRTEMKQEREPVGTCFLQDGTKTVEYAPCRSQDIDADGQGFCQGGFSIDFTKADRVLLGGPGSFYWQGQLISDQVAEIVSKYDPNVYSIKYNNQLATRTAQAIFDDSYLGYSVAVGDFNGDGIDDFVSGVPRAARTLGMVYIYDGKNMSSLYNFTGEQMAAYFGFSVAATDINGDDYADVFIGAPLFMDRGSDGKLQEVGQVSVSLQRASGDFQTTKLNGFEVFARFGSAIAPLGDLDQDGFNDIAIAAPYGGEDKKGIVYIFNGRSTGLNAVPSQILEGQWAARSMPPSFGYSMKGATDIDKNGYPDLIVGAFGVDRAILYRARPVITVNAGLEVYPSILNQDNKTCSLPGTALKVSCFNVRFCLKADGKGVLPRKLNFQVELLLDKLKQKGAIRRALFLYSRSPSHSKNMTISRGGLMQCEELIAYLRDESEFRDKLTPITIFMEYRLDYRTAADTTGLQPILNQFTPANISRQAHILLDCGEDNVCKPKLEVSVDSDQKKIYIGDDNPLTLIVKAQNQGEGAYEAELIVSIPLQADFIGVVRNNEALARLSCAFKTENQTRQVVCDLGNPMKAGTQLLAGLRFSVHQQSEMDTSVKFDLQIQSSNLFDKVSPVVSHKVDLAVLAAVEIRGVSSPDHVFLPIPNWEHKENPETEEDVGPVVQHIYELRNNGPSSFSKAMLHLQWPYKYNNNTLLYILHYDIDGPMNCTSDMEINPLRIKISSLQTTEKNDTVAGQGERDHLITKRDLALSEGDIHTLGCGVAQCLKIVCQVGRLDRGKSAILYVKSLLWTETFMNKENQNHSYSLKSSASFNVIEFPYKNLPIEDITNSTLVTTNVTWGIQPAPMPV
human αVβ3 integrin ectodomain (purchased, lyophilized) (human, UniProt P06756;P05106), sequence (P05106 27-718, chain 2 of 2): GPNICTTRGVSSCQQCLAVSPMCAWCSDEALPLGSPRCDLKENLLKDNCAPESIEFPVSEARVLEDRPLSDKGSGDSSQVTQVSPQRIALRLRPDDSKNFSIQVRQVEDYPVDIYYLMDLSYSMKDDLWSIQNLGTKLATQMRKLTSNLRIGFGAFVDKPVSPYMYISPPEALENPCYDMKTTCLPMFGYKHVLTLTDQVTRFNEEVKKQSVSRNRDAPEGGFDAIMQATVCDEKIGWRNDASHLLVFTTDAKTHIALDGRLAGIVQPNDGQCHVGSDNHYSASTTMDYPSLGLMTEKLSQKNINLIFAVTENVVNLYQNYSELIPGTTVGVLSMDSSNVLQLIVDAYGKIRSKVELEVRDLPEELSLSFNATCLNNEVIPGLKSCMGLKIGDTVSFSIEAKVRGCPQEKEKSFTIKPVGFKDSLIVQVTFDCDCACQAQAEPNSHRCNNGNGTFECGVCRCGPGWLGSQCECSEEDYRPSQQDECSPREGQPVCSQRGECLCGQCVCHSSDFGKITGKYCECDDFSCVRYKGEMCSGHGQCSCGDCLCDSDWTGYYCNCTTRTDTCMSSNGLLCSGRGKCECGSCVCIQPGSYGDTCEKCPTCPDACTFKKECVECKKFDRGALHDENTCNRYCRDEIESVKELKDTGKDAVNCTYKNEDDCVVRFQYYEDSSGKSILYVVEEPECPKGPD

[2] = target: human αVβ3 integrin ectodomain (purchased, lyophilized) (human, UniProt P06756 31-992; P05106 27-718); experiment: SEC
human αVβ3 integrin ectodomain (purchased, lyophilized) (human, UniProt P06756 31-992; P05106 27-718), sequence (P06756 31-992, chain 1 of 2): as the sequence (P06756 31-992, chain 1 of 2) above
human αVβ3 integrin ectodomain (purchased, lyophilized) (human, UniProt P06756 31-992; P05106 27-718), sequence (P05106 27-718, chain 2 of 2): as the sequence (P05106 27-718, chain 2 of 2) above

Binder | Kd [1] [µM] | koff [1] [s⁻¹] | kon [1] [M⁻¹ s⁻¹] | binding result [2]
B1 | 0.023 | 0.0034 | 150000 | –
{FITC}-GRGDSPK [FITC-GRGDSPK peptide] | – | – | – | binds
